For test [1], the target named is T1, human BDCA2 (human, UniProt Q8WTT0 1-213).
T1 construct: whole, on cells; also called hBDCA2; Blood dendritic cell antigen 2
T1 sequence (looked up): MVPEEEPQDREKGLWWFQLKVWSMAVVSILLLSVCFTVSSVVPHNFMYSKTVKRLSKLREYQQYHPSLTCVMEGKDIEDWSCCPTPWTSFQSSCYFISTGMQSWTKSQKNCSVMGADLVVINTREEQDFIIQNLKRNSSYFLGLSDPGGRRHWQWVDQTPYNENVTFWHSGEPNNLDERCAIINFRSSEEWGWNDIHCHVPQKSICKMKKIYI
Nature of the test: FACS on CHOK1-hBDCA2 cells; EC50 table under the plot, unit from the x axis (nM). Here is the method:
(§1) The cells were recovered and resuspended to 2×10⁶/mL with FACS buffer (PBS+2% FBS). The cells were added to 3799 cell plates (Corning) at 100 μL/well, and the supernatant was discarded after centrifugation at 300 g. The antibodies were serially diluted with FACS buffer (Id.), the diluted antibodies were added to centrifuged cells and the cells were resuspended. The cells were incubated at 4° C. for 1 h. The incubated cells were then centrifuged at […] for 5 min and washed twice with FACS buffer. 100 μL Donkey anti-Mouse IgG (H+L) Highly Cross-Adsorbed Secondary Antibody-Alexa Fluor 488 (Invitrogen, A21202; 1:1000) secondary antibody was added to the cells, which were washed twice with FACS buffer after incubation at 4° C. for 1 h, resuspended with PBS, analyzed with FACS (BD FACS CantoTM II) instrument. The curve was fitted with GraphPad Prism6, and EC₅₀ values were calculated.

Test [2] concerns the target T1, human BDCA2. The test can be described thus: cell-based or functional assay.
Test [3] has as its target T2, cynomolgus BDCA2 (cynomolgus monkey, UniProt A0A2K5UWP4 1-212).
T2 construct: whole, on cells; also called Cyno BDCA2; cynoBDCA2
T2 sequence: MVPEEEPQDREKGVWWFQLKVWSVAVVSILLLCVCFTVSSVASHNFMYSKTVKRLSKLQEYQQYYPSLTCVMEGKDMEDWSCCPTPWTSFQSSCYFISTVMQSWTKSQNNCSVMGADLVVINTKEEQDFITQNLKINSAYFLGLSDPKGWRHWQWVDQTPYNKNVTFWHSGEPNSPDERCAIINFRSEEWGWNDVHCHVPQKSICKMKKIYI
Nature of the test: FACS on 293F-cynoBDCA2 cells; EC50 table under the plot, unit from the x axis (nM). Here is the method: as §1

For test [4], the target named is T1, human BDCA2. Nature of the test: FACS, CHOK1-humanBDCA2 cells. Here is the method:
The cells were recovered and resuspended to 2×10⁶/mL with FACS buffer (PBS+2% FBS). The resuspended cells were added to 3799 cell plates at 100 μL/well, and the supernatant was discarded after centrifugation at 300 g. […] The cells were incubated at 4° C. for 1 h. The incubated cells were centrifuged at […] for 5 min and washed twice with FACS buffer. 100 μL Goat anti-Human IgG (H+L) Cross-Adsorbed Secondary Antibody, Alexa Fluor 488 (Sigma, A11013; 1:1000) secondary antibody was added, washed twice with FACS buffer after incubation at 4° C. for 1 h. The cells were resuspended with PBS, then the fluorescence signal of antibodies bound to cell surface was analyzed with FACS (BD FACS CantoTM II) instrument and curves were fitted with GraphPad Prism6 to calculate EC₅₀ values for antibodies binding to BDCA2 antigen.
On the technique in general: A flow cytometer gives signals particle by particle.

The target of test [5] is T1, human BDCA2. Nature of the test: FACS on CHOK1-hBDCA2 cells; EC50 table under the plot, unit from the x axis (nM). Here is the method:
The cells were recovered and resuspended to 2×10⁶/mL with FACS buffer (PBS+2% FBS). The cells were added to 3799 cell plates (Corning) at 100 μL/well, and the supernatant was discarded after centrifugation at 300 g. The antibodies were serially diluted with FACS buffer (Id.), the diluted antibodies were added to centrifuged cells and the cells were resuspended. The cells were incubated at 4° C. for 1 h. The incubated cells were centrifuged at 300 g for 5 min and washed twice with FACS buffer. 100 μL […] anti-Human IgG (H+L) Cross-Adsorbed Secondary Antibody-Alexa Fluor 488 (Sigma, A11013; 1:1000) secondary antibody was added, washed twice with FACS buffer after incubation at 4° C. for 1 h, resuspended with PBS, analyzed with FACS (BD FACS CantoTM II) instrument and curve fitted with GraphPad Prism6, and EC₅₀ values were calculated.
The source holds these as a separate data set.

The target in test [6] is T3, Human BDCA2 Fc recombinant protein (human).
T3 construct: Human IgG1 Fc N-terminal of the BDCA2 extracellular domain (Asn45-Ile213), fused by a linker; also called BDCA2-Fc protein
The test can be described thus: ELISA, coated humanBDCA2 Fc. Here is the method: HumanBDCA2 Fc protein or cynoBDCA2 His protein was diluted with PBS to 1 μg/mL and added to ELISA microplates at 100 μL/well and incubated at 4° C. overnight. The plates were blocked with ELISA blocking solution (PBS phosphate buffer with 1% BSA, pH 7.4, the percentages representing mass percentages) at 37° C. for 2 hours. Sequential 10-fold serial dilutions of antibodies were added at 8 concentrations (0.0001 nM-100 nM, including 0 point control) in total at 100 μL/well. The plates were incubated at 37° C. for 1 hour, then washed 3 times and after anti-mouse IgG (Fab specific)-HRP (Sigma, A3682; 1: 5000 dilution) secondary antibodies were added at 100 μL/well, were incubated at 37° C. for 1 h. The plates were washed 3 times, TMB development fluid (EL0009, Huzhou Ying Chuang Biotechnology) was added at 100 μL/well and 50 μL 1N hydrochloric acid was added after incubation at 37° C. for 10 min to stop the development reaction. OD450 nm values were read with ELISA plate reader and the curve was fitted with GraphPad Prism6, and EC₅₀ values were calculated.
(ELISA stands for enzyme-linked immunosorbent assay.)

The target in test [7] is T1, human BDCA2. The test can be described thus: FACS on CHOK1-hBDCA2 cells; EC50 table under the plot, unit from the x axis (nM) [continued) d.]. Here is the method: as §1
Test [8] has as its target T2, cynomolgus BDCA2. The test can be described thus: FACS on 293F-cynoBDCA2 cells; EC50 table under the plot, unit from the x axis (nM) [continued) d.]. Here is the method:
as §1

Test [9] has as its target T2, cynomolgus BDCA2. The test can be described thus: FACS, 293F-cynoBDCA2 cells.

Substitutions are numbered along the chain they refer to.

B1: mAb005 (antibody, V domains shown)
VH: QVQLKQSGPGLVQPSQSLSITCTVSGFSLTNYGVHWVRQSPGKGLEWLGVIWSGESTDYDAAFISRLSISKDNSKSQVFFKMNSLQADDSAIYYCARRRSHYYGYVMDYWGQGTSVTVSS
VL: DIVLTQSPASLAVSLGQRATISCKASQSIDYDGIGYLNWYQHKPGQPPKLLIYAASNLESGIPARFSGSGSGTDFTLNIHPVEEEDAATYYCQQSNEDPPTFGSGTKLEIK
notes: Mouse hybridoma antibody
By EC50 is commonly meant the concentration needed to bring the measured effect to its halfway point. For the molecule B1, the EC50 is 1.83 nM in [1] and 2.11 nM in [3]. Besides, in [2], the “IC50 for inhibiting cytokine IFNα release, CpG-A stimulated human PBMC” value was found to be 0.0867 nM.

B2: mab005c (antibody, V domains shown)
VH: B1 VH
VL: B1 VL
Take B2: the “IC50, inhibition of IFNα secretion, CpG-A stimulated human PBMC” value in [2] worked out at 0.00836 nM. Also, the EC50 in [4] amounted to 2.2 nM; in test [5], 0.964 nM.

B3: mab016c (antibody, V domains shown)
VH: B1 VH with N31S, K81R
VL: B1 VL with I29V, I34V
As for B3, the EC50 in [5] came to 0.977 nM.

B4: mAb028 (antibody, V domains shown)
VH: DVQLQESGPGLVKPSQSLSLTCSVTGYSISSGYYWNWIRQFPGNKLECMGYISYDGSNYYNPSLKNRISITRDTSKNQFFLSLNSVTTEDTATYFCVRGGDYDDGGFAYWGQGTLVTVSA
VL: DIQMTQSPASLSASVGETVTITCRASGNIHNYLAWYQQKQGKSPQLLVYNAKTLADGVPSRFSGSGSETQYSLKINSLQPEDFGNYFCQHFWIIPYTFGGGTKLEIK
notes: Mouse hybridoma antibody
On to B4, for which the concentration for a half-maximal effect (EC50) was less than 0.3 nM in test [6], 0.251 nM in test [7] and 0.28 nM in test [8].

B5: mAb032 (antibody, V domains shown)
VH: B4 VH with S30T
VL: B4 VL
notes: Mouse hybridoma antibody
With B5, the figures for the EC50 in test [6], in test [7] and in test [8] were less than 0.3 nM, 0.225 nM and 0.359 nM, respectively.

B6: mAb001 (antibody, V domains shown)
VH: QIQLVQSGPELKKPGETVKISCKASGYTFTDFSMHWVKQAPGKGLKWMGWINTETGEPTYADDFKGRFAFSLETSASTAFLQINNLKNDDTTTYFCSRGGDGHPYWYFAVWGAGTTVTVSS
VL: DIVLTQSPASLAVSLGQRATISCRASQSVSTSSYSYMHWYQQKPGQPPKLLIKYASILESGVPARFSGSGSGTDFTLNIHPVEEEDTATYYCQHSWEIPFTFGSGTKLEIK
notes: Mouse hybridoma antibody
Regarding B6, the EC50 in test [1] is 1.37 nM; in test [3], 6.08 nM.

B7: mab002c (antibody, V domains shown)
VH: QIQLVQSGPELKKPGETVKISCRASGYSFTDYSMHWVKQAPGKGLKWVGWINTETGEPTYADDFKGRFALSLETSATSAYLQINNLKNEDTATYFCARGGDGFPYWYFNVWGAGTTVTVSS
VL: B6 VL with A9T, A19T, T20N, Y34N, M37I, I57N, E59D, A88S
Take B7: a half-maximal response in test [5] (EC50) required 1.61 nM.

B8: mAb002 (antibody, V domains shown)
VH: B7 VH
VL: B6 VL with A9T, A19T, T20N, Y34N, M37I, I57N, E59D, A88S
notes: Mouse hybridoma antibody
Consider B8, for which the EC50 in test [1] came out at 1.89 nM; in [3] it was 7.05 nM.

B9: mAb026 (antibody, V domains shown)
VH: DVQLQESGPGLVKPSQSLSLTCSVTGYSITSAYYWNWIRQFPGHKLEWMGYISYDGSNNYNPSLKNRISITRDTSKNQFFLKLNSVTTEDTATYHCARGVDYPNAIDWWGQGTSLTVSS
VL: DIVLTQSPTSLTVSLGQRATISCRASESVSIHGTHLMHWYQQKPGQPPKLLIYVASYLESGVPARFSGSGSETDFSLNIHPVEEEDAATYFCQQSFEDPWTFGGGTKLEIK
notes: Mouse hybridoma antibody
Take B9: the EC50 was less than 0.3 nM in test [6], 0.773 nM in test [7] and 2.49 nM in test [8].

B10: Hu005-24 (antibody, IgG1, V domains shown)
VH: QVQLQQSGPGLVKPSETLSLTCTVSGGSLTNYGVHWIRQPPGKGLEWIGVIWSGESTDYDAAFISRVTISKDNSKNQVSLKLSSVTAADTAVYYCARRRSHYYGYVMDYWGQGTTVTVSS
VL: DIQMTQSPSSLSASVGDRVTITCKASQSIDYDAIGYLNWYQQKPGKAPKLLIYAASNLESGVPSRFSGSGSGTDFTLTISSLQPEDFATYYCQQSNEDPPTFGQGTKLEIK
notes: Humanized IgG1; also called hu005-24(BM6)
Regarding B10, in [4], the EC50 came to 1.9 nM. In addition, the binding result in test [9] was “binds”.

Source of the values: patent US20250346673A1 (DUALITY BIOLOGICS SUZHOU, published 2025).
